Test results taken from paper PMC4864540, “Isolation and Characterization of a Broad Spectrum Bacteriocin from Bacillus amyloliquefaciens RX7” (BioMed Research International, 2016).

What was measured:
α-chymotrypsin = target: T1, α-chymotrypsin (Bos taurus, UniProt P00766); test: Effect of enzyme treatment on antimicrobial activity; type: in vitro ADME; details: α-Chymotrypsin 10 mg/mL, 37°C, 2 h, then boiled 2 min; residual antimicrobial activity vs before treatment, against L. monocytogenes ATCC 19114
T1 construct: purchased Sigma (USA) and Takara (Japan)
Experimental: (§1) To evaluate pH stability, the pH of crude bacteriocin solution was adjusted with 1 N HCl and 1 N NaOH and readjusted to pH 7 after incubation for 2 h at 37°C. To evaluate thermal stability, the crude bacteriocin solution was incubated at 4, 37, 50, 80, and 100°C for 15–30 minutes. All samples were cooled to room temperature before activity assays. To analyze sensitivity to various enzymes, the crude bacteriocin solution was treated at 37°C for 2 h with 10 mg/mL (final concentration) of the following enzymes: α-amylase, α-chymotrypsin, lipase, proteinase-K, pepsin, or trypsin. All enzymes used were from Sigma (USA) and Takara (Japan). The samples were then boiled for 2 min to denature the enzymes and cooled to room temperature. Samples were exposed to various organic solvents at a final concentration of 10% (v/v) to explore their effects on bacteriocin activity. After incubation for 2 h at 37°C, the residual activity was recorded. All treated samples were tested for residual activity against L. monocytogenes ATCC 19114, as described above.

trypsin = test: as above; type: in vitro ADME; details: Trypsin 10 mg/mL, 37°C, 2 h, then boiled 2 min; residual antimicrobial activity vs before treatment, against L. monocytogenes ATCC 19114
Experimental: as §1

pepsin = target: T2, pepsin (Sus scrofa, UniProt P00791); test: as above; type: in vitro ADME; details: Pepsin 10 mg/mL, 37°C, 2 h, then boiled 2 min; residual antimicrobial activity vs before treatment, against L. monocytogenes ATCC 19114
T2 construct: purchased Sigma (USA) and Takara (Japan)
T2 sequence (P00791 60-385): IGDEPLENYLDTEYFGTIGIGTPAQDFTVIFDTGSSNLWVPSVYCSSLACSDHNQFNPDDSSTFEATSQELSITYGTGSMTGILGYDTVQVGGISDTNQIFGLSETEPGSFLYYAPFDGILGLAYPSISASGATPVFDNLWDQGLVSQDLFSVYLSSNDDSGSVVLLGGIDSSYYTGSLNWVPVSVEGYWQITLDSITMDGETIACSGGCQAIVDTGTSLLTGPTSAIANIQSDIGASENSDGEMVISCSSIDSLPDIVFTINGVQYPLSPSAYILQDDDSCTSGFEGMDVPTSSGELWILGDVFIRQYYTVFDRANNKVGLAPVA
Experimental: as §1

proteinase-K = target: T3, proteinase-K (Parengyodontium album, UniProt P06873); test: as above; type: in vitro ADME; details: Proteinase-K 10 mg/mL, 37°C, 2 h, then boiled 2 min; residual antimicrobial activity vs before treatment, against L. monocytogenes ATCC 19114
T3 construct: purchased Sigma (USA) and Takara (Japan)
T3 sequence (P06873 106-384): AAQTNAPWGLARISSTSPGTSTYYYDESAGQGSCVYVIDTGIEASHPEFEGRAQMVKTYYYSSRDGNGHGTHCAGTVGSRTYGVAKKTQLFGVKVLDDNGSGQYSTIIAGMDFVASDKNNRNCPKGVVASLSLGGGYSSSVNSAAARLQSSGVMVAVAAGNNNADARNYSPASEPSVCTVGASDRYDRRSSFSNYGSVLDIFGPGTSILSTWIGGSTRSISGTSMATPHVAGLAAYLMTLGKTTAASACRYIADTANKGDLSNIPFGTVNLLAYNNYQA
Experimental: as §1

α-amylase = test: as above; type: in vitro ADME; details: α-Amylase 10 mg/mL, 37°C, 2 h, then boiled 2 min; residual antimicrobial activity vs before treatment, against L. monocytogenes ATCC 19114
Experimental: as §1

lipase = test: as above; type: in vitro ADME; details: Lipase 10 mg/mL, 37°C, 2 h, then boiled 2 min; residual antimicrobial activity vs before treatment, against L. monocytogenes ATCC 19114
Experimental: as §1

[1] = system: L. monocytogenes ATCC 19114; test: pH stability of antimicrobial activity; type: physicochemical, Listeria monocytogenes; details: for Residual activity (%): 2 h at 37°C, residual activity against L. monocytogenes ATCC 19114
Experimental: as §1

[2] = system: Klebsiella pneumoniae subsp. pneumoniae KCCM 11418; test: Agar well diffusion assay; type: cell-based; details: cell-free supernatant, medium NB
Experimental: (§2) Soil samples were collected from a farm in Cheonan city, Korea. They were mixed with sterile water (1 : 10, w/v), homogenized, and heated at 50°C for 60 min in a water bath. One mL of this suspension was inoculated into 100 mL of tryptic soy broth (Difco, USA) and incubated at 50°C for 24 h, after which microbial growth was monitored based on changes in turbidity of the cultures. Aliquots of the cultures were inoculated onto TSB plates, incubated at 30°C, and single colonies were isolated and screened for antimicrobial activity. The antimicrobial activity was performed according to Ramachandran et al. with modifications. It was expressed as the diameter of the inhibition zones around the wells using agar well diffusion assays with Listeria monocytogenes ATCC 19114 as the indicator strain.
(§3) Antimicrobial activity was detected using the agar well diffusion assay and tested against all indicator strains (Table 1) grown in their respective media, as indicated (Difco, USA). An aliquot of culture was centrifugated at 6,000 g for 15 min at 4°C (Mega 21R, Hanil Co., Republic of Korea), filtered using 0.45 μm pore-size cellulose acetate syringe filters (Advantec Co., Japan) to remove cells, then applied to wells on agar plates. Experiments were done in no less than five individual trials having no less than three replications.
(§4) The plates were incubated at the optimal temperature of the test organism. The bacteriocin titer was determined using the serial twofold dilution method. Activity was defined as the reciprocal of the dilution after the last serial dilution giving a zone of inhibition and was expressed as activity units (AU) per milliliter. All measurements were done in triplicate and the means are shown as the results.

[3] = system: Candida albicans KCTC 7122; test: Agar well diffusion assay; type: cell-based; details: cell-free supernatant, medium PDA
Experimental: as §2, §3, §4

[4] = system: Salmonella enteritidis KVCC-BA0700654; test: Agar well diffusion assay; type: cell-based; details: cell-free supernatant, medium NB
Experimental: as §2, §3, §4

[5] = system: Listeria monocytogenes ATCC 19114; test: Agar well diffusion assay; type: cell-based; details: cell-free supernatant, medium TSB
Experimental: as §2, §3, §4

[6] = system: Salmonella enteritidis KCCM 12021; test: Agar well diffusion assay; type: cell-based; details: cell-free supernatant, medium NB
Experimental: as §2, §3, §4

[7] = system: Enterococcus faecalis (VRE) CCARM 0011; test: Agar well diffusion assay; type: cell-based; details: cell-free supernatant, medium NB
Experimental: as §2, §3, §4

[8] = system: Bacillus cereus KCTC 1661; test: Agar well diffusion assay; type: cell-based; details: cell-free supernatant, medium LB
Experimental: as §2, §3, §4

[9] = system: Salmonella pullorum KVCC-BA0702509; test: Agar well diffusion assay; type: cell-based; details: cell-free supernatant, medium NB
Experimental: as §2, §3, §4

[10] = system: Bacillus licheniformis KCCM 12145; test: Agar well diffusion assay; type: cell-based; details: cell-free supernatant, medium NB
Experimental: as §2, §3, §4

[11] = system: Shigella flexneri KCCM 40414; test: Agar well diffusion assay; type: cell-based; details: cell-free supernatant, medium NB
Experimental: as §2, §3, §4

[12] = system: Streptococcus mutans ATCC 25175; test: Agar well diffusion assay; type: cell-based; details: cell-free supernatant, medium BHI
Experimental: as §2, §3, §4

[13] = system: Pseudomonas aeruginosa KCCM 11266; test: Agar well diffusion assay; type: cell-based; details: cell-free supernatant, medium NB
Experimental: as §2, §3, §4

[14] = system: Pseudomonas aeruginosa CCARM 2003; test: Agar well diffusion assay; type: cell-based; details: cell-free supernatant, medium LB
Experimental: as §2, §3, §4

[15] = system: Staphylococcus aureus KFRI 00188; test: Agar well diffusion assay; type: cell-based; details: cell-free supernatant, medium NB
Experimental: as §2, §3, §4

[16] = system: Salmonella gallinarum KVCC-BA0700722; test: Agar well diffusion assay; type: cell-based; details: cell-free supernatant, medium NB
Experimental: as §2, §3, §4

Escherichia coli K88 = test: Agar well diffusion assay; type: cell-based; details: cell-free supernatant, medium LB
Experimental: as §2, §3, §4

[17] = system: Lactobacillus plantarum KCCM 11322; test: Agar well diffusion assay; type: cell-based; details: cell-free supernatant, medium MRS
Experimental: as §2, §3, §4

[18] = system: Lactobacillus salivarius CPM7 (our isolate); test: Agar well diffusion assay; type: cell-based; details: cell-free supernatant, medium MRS
Experimental: as §2, §3, §4

[19] = system: Salmonella typhimurium KCCM 40253; test: Agar well diffusion assay; type: cell-based; details: cell-free supernatant, medium NB
Experimental: as §2, §3, §4

[20] = system: Streptococcus agalactiae ATCC 13813; test: Agar well diffusion assay; type: cell-based; details: cell-free supernatant, medium TSB
Experimental: as §2, §3, §4

[21] = system: Lactobacillus johnsonii PF01 (our isolate); test: Agar well diffusion assay; type: cell-based; details: cell-free supernatant, medium MRS
Experimental: as §2, §3, §4

[22] = system: Lactobacillus acidophilus KCCM 32820; test: Agar well diffusion assay; type: cell-based; details: cell-free supernatant, medium MRS
Experimental: as §2, §3, §4

[23] = system: Lactobacillus delbrueckii KCCM 11357; test: Agar well diffusion assay; type: cell-based; details: cell-free supernatant, medium MRS
Experimental: as §2, §3, §4

[24] = system: Staphylococcus aureus subsp. aureus (MRSA) KCCM 40510; test: Agar well diffusion assay; type: cell-based; details: cell-free supernatant, medium NB
Experimental: as §2, §3, §4

[25] = system: L. monocytogenes ATCC 19114; test: Effect of organic solvents on antimicrobial activity; type: physicochemical, Listeria monocytogenes; details: 2 h at 37°C, residual activity against L. monocytogenes ATCC 19114
Experimental: as §1

[26] = system: L. monocytogenes ATCC 19114; test: Mode of action, time-kill study (viable cell count); type: cell-based, Listeria monocytogenes; details: 80 AU/mL added to L. monocytogenes at 4.2 × 10^8 CFU/mL, mid-exponential phase, viable counts at 1-hour intervals, mean of three experiments
Experimental: To determine the mode of action of the bacteriocin, the crude bacteriocin was added at a final concentration of 80 AU/mL to the culture at the mid-exponential growth phase of L. monocytogenes ATCC 19114 in 20 mL of TSB medium. Viable cells were counted at 1-hour intervals for the next 8 hours. Viable cell counting was repeated in triplicate and the mean values were calculated.

[27] = system: L. monocytogenes ATCC 19114; test: Thermal stability of antimicrobial activity; type: physicochemical, Listeria monocytogenes; details: cooled to room temperature, residual activity vs before treatment, against L. monocytogenes ATCC 19114
Experimental: as §1

NH2-X-Ala-Trp-Tyr-Asp-Ile-Arg-Lys-Leu-Gly-Asn-Lys-Gly-Ala [RX7 bacteriocin, Bacteriocin of approximately 5 kDa produced by Bacillus amyloliquefaciens RX7; homologous to lantibiotic haloduracin A1]
++ (less than 20 mm): Inhibition zone (mm) [3] | Inhibition zone (mm) [4] | Inhibition zone (mm) [6] | Inhibition zone (mm) [7] | Inhibition zone (mm) [8] | Inhibition zone (mm) [10] | Inhibition zone (mm) [11] | Inhibition zone (mm) [13] | Inhibition zone (mm) [14] | Inhibition zone (mm) [15] | Inhibition zone (mm) [16] | Inhibition zone (mm) (Escherichia coli K88) | Inhibition zone (mm) [19] | Inhibition zone (mm) [20]
100%: Residual activity (%) (pepsin) | Residual activity (%) (α-amylase) | Residual activity (%) (lipase) | Residual activity (%) ([1]; pH 3 (1 N HCl/1 N NaOH), readjusted to pH 7) | Residual activity (%) ([1]; pH 4 (1 N HCl/1 N NaOH), readjusted to pH 7) | Residual activity (%) ([1]; pH 5 (1 N HCl/1 N NaOH), readjusted to pH 7) | Residual activity (%) ([1]; pH 6 (1 N HCl/1 N NaOH), readjusted to pH 7) | Residual activity (%) ([1]; pH 7 (1 N HCl/1 N NaOH)) | Residual activity (%) ([1]; pH 8 (1 N HCl/1 N NaOH), readjusted to pH 7) | Residual activity (%) ([27]; heat 4°C/30 min) | Residual activity (%) ([27]; heat 37°C/30 min) | Residual activity (%) ([27]; heat 50°C/30 min) | Residual activity (%) ([27]; heat 80°C/30 min)
+ (less than 10 mm): Inhibition zone (mm) [2] | Inhibition zone (mm) [9] | Inhibition zone (mm) [12] | Inhibition zone (mm) [17] | Inhibition zone (mm) [18] | Inhibition zone (mm) [21] | Inhibition zone (mm) [22] | Inhibition zone (mm) [23] | Inhibition zone (mm) [24]
20%: Residual activity (%) ([27]; heat 121°C/15 min)
+++ (less than 30 mm): Inhibition zone (mm) [5]
3–8: pH range in which full activity was observed ([1]; 2 h at 37°C at the given pH, readjusted to pH 7, activity against L. monocytogenes ATCC 19114)
0%: Residual activity (%) (α-chymotrypsin) | Residual activity (%) (trypsin) | Residual activity (%) (proteinase-K)
2 h: incubation time for complete bactericidal action (no colony formation on TSB agar) [26]
90%: Residual activity (%) ([1]; pH 2 (1 N HCl/1 N NaOH), readjusted to pH 7) | Residual activity (%) ([1]; pH 9 (1 N HCl/1 N NaOH), readjusted to pH 7) | Residual activity (%) ([25]; Acetone 10% (v/v)) | Residual activity (%) ([25]; Acetonitrile 10% (v/v)) | Residual activity (%) ([25]; Ethanol 10% (v/v))
80%: Residual activity (%) ([1]; pH 1 (1 N HCl/1 N NaOH), readjusted to pH 7) | Residual activity (%) ([1]; pH 10 (1 N HCl/1 N NaOH), readjusted to pH 7) | Residual activity (%) ([25]; Butanol 10% (v/v)) | Residual activity (%) ([25]; Chloroform 10% (v/v)) | Residual activity (%) ([25]; Methanol 10% (v/v)) | Residual activity (%) ([27]; heat 100°C/30 min)
